Data from the nanobody polyreactivity screen of Harvey et al. (2022).

Assay: yeast display, Sf9 membrane polyspecificity reagent, FACS + sequencing; frameworks hold sequencing errors
Method in brief: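 Polyreactivity labels are assigned by the sorting gate from which each nanobody was recovered. The gates were low and high (top ~1%), set on anti-HA fluorescence for expression and streptavidin fluorescence for reagent binding. Before sorting, galactose-induced (36–48 hours) yeast display cells were stained for 1 hour at 4 °C with 10% biotinylated, detergent-solubilized Sf9 membrane reagent.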

Row | Sequence | polyreactivity (PSR sort gate)
1 | QVQLVESGGGLVQAGGSLRLSCAASGSTFAPNTMGWYRQAPGKERELVARITSSDGSTTYADSVKGRFTISRDNAKNTVYLQRNSLKPEDTAVYYCAADYGRRWGYDYWGQGTQVTVSS | low polyreactivity
2 | QVQLVESGGGLVQAGGSLRLSCAASGSTFARYAMGWYRQAPGKERELVAAISRSGSNTYYADSVKGRFTISRDNAKNTVYLQMNSLKPEDTAVYYCAAVQPGQRTVAYDYWGQGTQVTVSS | high polyreactivity
3 | QVQLVESGGGLVQAGGSLRLSCAASGSTFARYAMGWYRQAPGKERELVAAITWRGGSTYYADSVKGRFTISRDNAKNTVYLQMNSLKPEDTAVYYCAADFSRRYGYWGQGTQVTVSS | high polyreactivity
4 | QVQLVESGGGLVQAGGSLRLSCAASGSTFARYAMGWYRQAPGKERELVAGISRGGRTYYADSVMGRFTISRDYAKNTVYLQMNSLKPVDTAVYYCAKRYVTLYNSQYNYWGQGTQVTVSS | high polyreactivity
5 | QVQLVESGGGLVQAGGSLRLSCAASGSTFARYAMGWYRQAPGKERELVAGISTSGGRTYYADSVKGRFTISRDNAKNTVYLQMTSLKPEDTAVYYCAKALSQTWYDGQYGYWGQGTQVTVSS | low polyreactivity
6 | QVQLVESGGGLVQAGGSLRLSCAASGSTFASYAMGWSRQAPGKERELVAAIRWRGGTTYYADSVKGRFTISRDNAKNTVYLQMNSLKPEDTAVYYCNADRYYLYYYWGQGTQVTVSW | low polyreactivity
7 | QVQLVESGGGLVQAGGSLRLSCAASGSTFASYAMGWYRQAPGKEREFVAAISRSGGSTYYADSVKGRFTISRDNAKNTVYLQMNSLKPEDTAVYYCAARSPSADEYYYWGQGTQVTVSS | low polyreactivity
8 | QVQLVESGGGLVQAGGSLRLSCAASGSTFATNAMGWYRQAPGKERELVATISSDGSTNYADSVKGRFTISRDNAKNTVYLQMNSLKPEDTAVYYCATEVTYPWHVDEGDYWGQGTQVTVSS | low polyreactivity
9 | QVQLVESGGGLVQAGGSLRLSCAASGSTFAVYAMGWYRQAPGKERELVAAITWSGGSTYYADSVKGRFTISRDNAKNTVYFQMNSLKPEDTAVYYCAAAGYYSDMDYWGQGTQVTVSS | low polyreactivity
10 | QVQLVESGGGLVQAGGSLRLSCAASGSTFAVYAMGWYRQEPGKERELVATITGSGGSTYYADSVKGRFTISRDNAKNTVYLQMNSLKPEDTAVYYCAAEVVAWSLYEDFKTYDYWGQGTQVTVSS | low polyreactivity
11 | QVQLVESGGGLVQAGGSLRLSCAASGSTFAVYTMGWYRQAPGKERELVAAISSSGGSTYLRRSVKGRFTISRDNAKNTVYLQMNSLKPEDTAVYYCAAQWYAGHWHVPYEYWGQGTQVTVSS | high polyreactivity
12 | QVQLVESGGGLVQAGGSLRLSCAASGSTFAWYAMGWYRQAPGKGEFVAGISDSGGRTYYADSVKGRFTISRDNAKNTVYLQMNSLKPEDTAVYYCAAGDHYYRYAYRRGYWGQGTQVTVSS | low polyreactivity
13 | QVQLVESGGGLVQAGGSLRLSCAASGSTFAYNAMGCYRQAPGKERELVAAISFTGDSTYYADSVKGRFTISRDNAKYTVYLQMNSLKPEDNRSSPVLSYDYWGQGTQVTVSS | low polyreactivity
14 | QVQLVESGGGLVQAGGSLRLSCAASGSTFAYNAMGWYIQAPGKERELVAAISWGDGITYYADSVKGRFSISRDYAKNTVYLQINILKPEDTAVITRDFGYWGQGTQVTVSS | low polyreactivity
15 | QVQLVESGGGLVQAGGSLRLSCAASGSTFAYNAMGWYRQAPGKERELVAAISSSGGSTSYADSVKARFTIARDNAKNTVNLQMNSLKPEDPAVYYCAADSYPAYLGFVGFDYWGQGTQVTVSS | low polyreactivity
16 | QVQLVESGGGLVQAGGSLRLSCAASGSTFAYNAMGWYRQAPGKERELVAAISSSGTSTYYADSVKGRFTISRDYAKNTVYLQMNSLKTEDTAVYYCAARSAILKSGYLMDYWGQGTQVTVSS | low polyreactivity

Row | Sequence | polyreactivity (PSR sort gate)
17 | QVQLVESGGGLVQAGGSLRLSCAASGSTFAYNAMGWYRQAPGKERELVASITVSVGSTYYADSVKGRYTISRDNAKNTVYLQMNRLKPVDTAVYYCAARVTLRSSTYWVPRTGYYYWGQGTQVTVSS | low polyreactivity
18 | QVQLVESGGGLVQAGGSLRLSCAASGSTFAYYMGWYRQAPGKERELVASISTYYADSVKGRFTISRDNAKNTVYLQMNSLKPEDTAVYSCAKGYPDPQWGGVLAYDYWGQGTQVTVSS | low polyreactivity
19 | QVQLVESGGGLVQAGGSLRLSCAASGSTFAYYVMGWYRQAPGKERELVAAISRGGRTYYADSVKGRFTISRDNAKNTVYLQMNSLKPEDTAVYYCAKPYHQRSAKVDYWGQGTQVTVSS | low polyreactivity
20 | QVQLVESGGGLVQAGGSLRLSCAASGSTFAYYVMGWYRQAPGKERELVAAITSSGGRTYYADSVKGRFTISRDNAKNTVYLQMNSQKPEDTAVYYCAKVSQRRVDNSDYDYWGQGTQVTVSS | high polyreactivity
21 | QVQLVESGGGLVQAGGSLRLSCAASGSTFCDYAMGWYRQAPGKERELVAAISSGGSTNYADSVKGRFTISRDNAKNTVYLQMNSLKPEDTAVYYCAVGYGGYYYWGQGTQVTVSS | high polyreactivity
22 | QVQLVESGGGLVQAGGSLRLSCAASGSTFCGYAMGWSRQAPGKEREFVATISISGGSTYYADSVKGRFTISRDNAKNTVYLQMNSLKPEDTAVYYCNADYYFSWGSIEDYWGQGTQVTVSS | low polyreactivity
23 | QVQLVESGGGLVQAGGSLRLSCAASGSTFCRNTMGWYRQAPGKERELVAAINRSASNTYYADSVKGRFTISRDNAKNTVYLQMNSLKQEDPAVYYCSTYSRIFKWEYYYWGQGTQGTVSS | high polyreactivity
24 | QVQLVESGGGLVQAGGSLRLSCAASGSTFDANAMGWYRQAPGKERELVAAISYSDGTTYYADSVKGRFTISRDNAKNTVYLQMNSLKPEDTAVYYCAAELFTYDGEEDYWGQGTQVTVSS | high polyreactivity
25 | QVQLVESGGGLVQAGGSLRLSCAASGSTFDAYAMGWYRQAPGKERELVAAITWSGGSTYYADSVKGRFTISRDNAKTTVYLQMNSLKPEDTAVYYCAAYYLIFYFEFDYWGQGTQVTVYS | low polyreactivity
26 | QVQLVESGGGLVQAGGSLRLSCAASGSTFDDNVMGWYRQAPGKERELVASSTSGGGTNYADSVKGRFTISRDNAKNTVYLQMKSLKPEDTAVYYCAARTQGRRLDYGYWGQGTQVTVSS | low polyreactivity
27 | QVQLVESGGGLVQAGGSLRLSCAASGSTFDDYAMGWYRQATGIERELVAAINNGGSTTYADSVKGRFTISRDNAKNTVYLQMNSLKPEDTAVYYCAKDSGAWEYDYWGQGTQVTVSS | low polyreactivity
28 | QVQLVESGGGLVQAGGSLRLSCAASGSTFDFNAMGWYRQAPRKERELVASISWDTGGTYADSVKGRFTISRDNAKNSFYLQMNSLKTEDTAVYFCAARPDYFIFDYWGQGTQVTVSS | low polyreactivity
29 | QVQLVESGGGLVQAGGSLRLSCAASGSTFDGNAMGWYRQAPGKERELVAAITSGGSTNYADSVKGRFTISRDNAKNTDYLQMNSLKPEDTAVYYCAADTVSFSILYDYWGQGTQVTVSS | low polyreactivity
30 | QVQLVESGGGLVQAGGSLRLSCAASGSTFDGNAMGWYRQAPGKERELVAAITYTTSSTYYADSVKGRFTISRDNAKNTVYLQMNSLKPEDTAVYYCAADASYLPYPLPGTEYEYWGQGTQVTVSS | low polyreactivity
31 | QVQLVESGGGLVQAGGSLRLSCAASGSTFDGYAMGWYRQAPGKERELVAAISSSGTSTYYADSVKGRFTISRDNAKNTVYLQMNSLKPEDTAVYYCAGKGATQSWAGDYWGQGTQVTVSS | low polyreactivity
32 | QVQLVESGGGLVQAGGSLRLSCAASGSTFDGYAMGWYRQAPGKERELVAAITVSVGSTYYADSVKGRFTISRDNAKNTVYLQMNSLIPEDTAVYYCAADYDYHYRYYYWGQGTQVTVSS | low polyreactivity
